The values below come from patent US10591471B2, “Suppression of SPLA2-integrin binding for treating an inflammatory condition or suppressing cell proliferation” (THE REGENTS OF THE UNIVERSITY OF CALIFORNIA, priority 2015, dated 2020).

Changes are numbered by the printed parent chain. Numbers in names are those of the source. Where no end group is shown, it is not given here. Some results are limits rather than exact numbers.

Experiment [1] concerns the target T1, sPLA2-IIA catalytic activity (Homo sapiens, UniProt P14555).
T1 sequence (P14555 21-144): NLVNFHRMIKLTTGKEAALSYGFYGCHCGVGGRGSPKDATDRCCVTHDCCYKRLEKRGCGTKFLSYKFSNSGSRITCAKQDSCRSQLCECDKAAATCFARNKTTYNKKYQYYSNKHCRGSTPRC
Conditions: clinical trials; cited from earlier work.

For experiment [2], the system named is integrin activation by FKN-CD. The note with it: cited from earlier work.
For another experiment, the target named is T2, FKN-CD (Homo sapiens, UniProt P78423).
T2 sequence (P78423 25-100 limits assumed): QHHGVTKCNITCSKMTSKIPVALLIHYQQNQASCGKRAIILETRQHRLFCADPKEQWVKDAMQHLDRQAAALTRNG
The note with it: cited from earlier work.

The next experiment addresses T3, sPLA2-IIA (Homo sapiens, UniProt P14555).
T3 construct: made in house
T3 sequence (P14555 21-144): T1 sequence (P14555 21-144)
Nature of the experiment: ELISA-type binding of S2 peptides to immobilized sPLA2-IIA. The note with it: GST-tagged peptides; sPLA2-IIA 20 μg/ml coating. On the procedure:
ELISA-type binding assays were performed as described previously (18). Briefly, wells of 96-well Immulon 2 microtiter plates (Dynatech Laboratories, Chantilly, Va.) were coated with 100 μl 0.1 M NaHCO3 containing sPLA2-IIA, γC399tr, FN-H120 for 2 h at 37° C. Remaining protein binding sites were blocked by incubating with PBS/0.1% BSA for 30 min at room temperature. After washing with PBS, S2 peptides were added to the wells and incubated in PBS for 2 h at room temperature. After unbound S2 peptides were removed by rinsing the wells with PBS, bound S2 peptides (GST-tagged) were measured using HRP-conjugated anti-GST antibody and peroxidase substrates.

The next experiment relates to U937 cells. Nature of the experiment: sPLA2-IIA-induced chemotaxis in modified Boyden chambers. It is filed as cell-based, human. The note with it: 1 μg/ml sPLA2-IIA, 20 μg/ml peptide, 5 h. On the procedure: FIG. 11. S2-β1 peptide suppresses sPLA2-IIA-induced chemotaxis. Chemotaxis was measured in modified Boyden chambers. 1 μg/ml sPLA2-IIA and 20 μg/ml S2-β1 peptide or control peptides in 600 μl RPMI 1640 medium were placed in lower chamber, and U937 cells (2×10^5 cells in 100 μl RPMI 1640 medium) were placed in the upper chamber. After 5 hours of incubation at 37° C., cells in the lower chamber was counted.
Chemotaxis was measured in modified Boyden Chambers (Transwell). One μg/ml sPLA2-IIA and 20 μg/ml S2-β1 peptide or control peptides in 600 μl RPMI 1640 medium were placed in the lower chamber, and U937 cells (2×10^5 cells in 100 μl RPMI1640 medium) were placed in the upper chamber. After 5 h incubation at 37° C., cells in the lower chamber were counted.

In experiment [3] the test system is other ligands (e.g., SDF-1, IGF-1). In words: Additional testing: binding of linear and cyclic site 2 peptides to other ligands. The source says:
Data are shown in FIG. 12 comparing cyclic site 2 peptides (β1 and β3) binding to sPLA2-IIA or FKN.

Experiment [4] deals with integrin ligands used in this study. Nature of the experiment: ELISA: binding of sPLA2-IIA to the integrin ligands used. Conditions: ligands coated at 2 μM. As to the method:
FIG. 10. Lack of binding of sPLA2-IIA to integrin ligands used in the present study. Wells of 96-well microtiter plates were coated with ligands (2 μM coating concentration) and the remaining protein-binding sites were blocked with BSA. The wells were then incubated with sPLA2-IIA ([…] in PBS) for 2 hours at room temperature, and bound sPLA2-IIA was determined using HRP-conjugated anti-6His antibody. sPLA2-IIA (20 ng/ml coating concentration, 1% of input sPLA2-IIA) was used as a positive control. Data are shown as means+/−SEM of triplicate experiments.
In general terms: ELISA stands for enzyme-linked immunosorbent assay.

Experiment [5] deals with integrins αvβ3, α4β1, α5β1. Nature of the experiment: sPLA2-IIA-induced integrin activation (present study overall). On the procedure: ELISA-type binding assays were performed as described previously (18). Briefly, wells of 96-well Immulon 2 microtiter plates (Dynatech Laboratories, Chantilly, Va.) were coated with 100 μl 0.1 M NaHCO3 containing γC399tr or ADAM15 for 2 h at 37° C. Remaining protein binding sites were blocked by incubating with PBS/0.1% BSA for 30 min at room temperature. After washing with PBS, soluble recombinant αvβ3 (5 μg/ml) in the presence or absence of sPLA2-IIA (WT or mutants) was added to the wells and incubated in HEPES-Tyrodes buffer (10 mM HEPES, 150 mM NaCl, 12 mM NaHCO3, 0.4 mM NaH2PO4, 2.5 mM KCl, 0.1% glucose, 0.1% BSA) with 1 mM CaCl2 for 2 h at room temperature. After unbound αvβ3 was removed by rinsing the wells with binding buffer, bound αvβ3 was measured using anti-integrin β3 mAb (AV-10) followed by HRP-conjugated goat anti-mouse IgG and peroxidase substrates.
The cells were cultured to nearly confluent in RPMI 1640/10% FCS (K562 and U937) or DMEM/10% FCS (CHO cells). The cells were resuspended with RPMI 1640/0.02% BSA or DMEM/0.02% BSA and incubated for 30 min at room temperature to block remaining protein binding sites. […] The cells were washed with PBS/0.02% BSA and analyzed by FACSCalibur (Becton Dickinson, Mountain View, Calif.). […]

Experiment [6] deals with integrin αvβ3 on U937, αvβ3-K562 and β3-CHO cells. In words: Flow cytometry: binding of FITC-labeled γC399tr to αvβ3 on the cell surface. The experiment is classed as cell-based, human. On the procedure:
(§1) The cells were cultured to nearly confluent in RPMI 1640/10% FCS (K562 and U937) or DMEM/10% FCS (CHO cells). The cells were resuspended with RPMI 1640/0.02% BSA or DMEM/0.02% BSA and incubated for 30 min at room temperature to block remaining protein binding sites. The cells were then incubated with WT sPLA2-IIA or mutants for 5 min at room temperature and then incubated with FITC-labeled integrin ligands (γC399tr, FN-H120, FN8-11, and ADAM15) for 15 min at room temperature. For blocking experiments, sPLA-IIA was preincubated with S2-β1 peptide for 30 min at room temperature. The cells were washed with PBS/0.02% BSA and analyzed by FACSCalibur (Becton Dickinson, Mountain View, Calif.). For inhibition studies using Cmpd21, sPLA2-IIA was preincubated with Cmpd21 for 30 minutes at room temperature.
(In general: A flow cytometer gives signals particle by particle.)

Experiment [7] addresses T4, β1 integrins on U937, K562 and α4-K562 cells (Homo sapiens, UniProt P05556).
T4 construct: endogenous in cells; host or cells: U937, K562, α4-K562
In words: Reactivity of β1 integrins to activation-dependent antibodies HUTS4 and HUTS21. The experiment is classed as cell-based. The note with it: U937, K562, α4-K562 cells in RPMI1640; preliminary experiments. The text has this:
It is unclear whether sPLA2-IIA-induced integrin activation requires global conformational changes in integrins. In current models of integrin activation, activation of β1 integrins induces a swing-out movement of the hybrid domain and exposes epitopes recognized by activation-dependent antibodies (anti-human β1 HUTS4 and HUTS21)(45). The HUTS4 and HUTS21 epitopes are located in the hybrid domain of […] (46,47). […] It is possible that the binding of sPLA2-IIA to site 2 induces only local conformational changes within the headpiece of integrins. […] It was shown that sPLA2-IIA (the current study) FKN-CD (19) actually bind to site 2 and the binding of sPLA2-IIA and FKN to site 2 is required for integrin activation using the peptides from site 2. It is likely that integrins that are activated by sPLA2-IIA and FKN-CD through site 2 have conformations similar to the open-headpiece αvβ3 that has no global conformational changes compared to the closed-headpiece form. The open- and closed-headpiece conformations of αvβ3 may really reflect the fact that integrins can be activated without global conformational changes through allosteric mechanism.

For experiment [8], the system named is integrin α5β1 on U937, K562 and CHO cells. In words: Flow cytometry: binding of FITC-labeled FN8-11 to α5β1 on the cell surface. It is filed as cell-based, human, Chinese hamster. Conditions: sPLA2-IIA WT or mutants. On the procedure:
as §1

The subject of experiment [9] is integrin α4β1 on U937, α4-K562 and α4-CHO cells. In words: Flow cytometry: binding of FITC-labeled fibronectin H120 fragment to α4β1 on the cell surface. The experiment is classed as cell-based, human. The note with it: for binding of H120 to α4β1 (α4β1 activation): U937, α4-K562, α4-CHO cells, sPLA2-IIA WT or mutants. On the procedure: as §1
For a further experiment, the system named is Listera. Conditions: cited from earlier work.
Experiment [10] concerns the target T5, integrin αvβ3 on U937, αvβ3-K562 and β3-CHO cells (Homo sapiens, UniProt P05106+P06756).
T5 construct: expressed in transfected cells; host or cells: U937 (endogenous αvβ3); αvβ3-K562 (transfected human αvβ3); β3-CHO (human β3 with hamster αv)
In words: Flow cytometry: binding of FITC-labeled ADAM15 disintegrin domain to αvβ3. The experiment is classed as cell-based. Conditions: sPLA2-IIA 20 μg/ml. On the procedure: as §1

T4 sequence (P05556 21-798): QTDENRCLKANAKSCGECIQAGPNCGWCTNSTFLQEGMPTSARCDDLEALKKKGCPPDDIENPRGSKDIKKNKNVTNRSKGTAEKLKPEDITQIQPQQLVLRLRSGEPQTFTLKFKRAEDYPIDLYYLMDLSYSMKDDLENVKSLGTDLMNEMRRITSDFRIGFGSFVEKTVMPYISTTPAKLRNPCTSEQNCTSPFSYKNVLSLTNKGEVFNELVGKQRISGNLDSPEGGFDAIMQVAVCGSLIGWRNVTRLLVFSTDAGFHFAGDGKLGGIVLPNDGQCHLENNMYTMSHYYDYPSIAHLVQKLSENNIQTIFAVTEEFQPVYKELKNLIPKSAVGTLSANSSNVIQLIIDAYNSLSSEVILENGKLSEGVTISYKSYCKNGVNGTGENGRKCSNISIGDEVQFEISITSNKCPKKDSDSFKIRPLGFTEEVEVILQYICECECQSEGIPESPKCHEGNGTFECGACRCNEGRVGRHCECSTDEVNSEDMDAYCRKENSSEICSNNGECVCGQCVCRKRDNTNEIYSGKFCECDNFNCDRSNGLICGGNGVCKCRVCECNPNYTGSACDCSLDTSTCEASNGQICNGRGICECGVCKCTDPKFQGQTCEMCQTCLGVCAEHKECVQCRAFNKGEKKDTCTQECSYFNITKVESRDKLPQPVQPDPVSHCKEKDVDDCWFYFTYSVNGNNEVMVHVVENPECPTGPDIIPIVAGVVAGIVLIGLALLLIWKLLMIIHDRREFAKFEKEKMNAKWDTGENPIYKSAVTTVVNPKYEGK
T4 sequence (P08648 42-894 partner limits assumed): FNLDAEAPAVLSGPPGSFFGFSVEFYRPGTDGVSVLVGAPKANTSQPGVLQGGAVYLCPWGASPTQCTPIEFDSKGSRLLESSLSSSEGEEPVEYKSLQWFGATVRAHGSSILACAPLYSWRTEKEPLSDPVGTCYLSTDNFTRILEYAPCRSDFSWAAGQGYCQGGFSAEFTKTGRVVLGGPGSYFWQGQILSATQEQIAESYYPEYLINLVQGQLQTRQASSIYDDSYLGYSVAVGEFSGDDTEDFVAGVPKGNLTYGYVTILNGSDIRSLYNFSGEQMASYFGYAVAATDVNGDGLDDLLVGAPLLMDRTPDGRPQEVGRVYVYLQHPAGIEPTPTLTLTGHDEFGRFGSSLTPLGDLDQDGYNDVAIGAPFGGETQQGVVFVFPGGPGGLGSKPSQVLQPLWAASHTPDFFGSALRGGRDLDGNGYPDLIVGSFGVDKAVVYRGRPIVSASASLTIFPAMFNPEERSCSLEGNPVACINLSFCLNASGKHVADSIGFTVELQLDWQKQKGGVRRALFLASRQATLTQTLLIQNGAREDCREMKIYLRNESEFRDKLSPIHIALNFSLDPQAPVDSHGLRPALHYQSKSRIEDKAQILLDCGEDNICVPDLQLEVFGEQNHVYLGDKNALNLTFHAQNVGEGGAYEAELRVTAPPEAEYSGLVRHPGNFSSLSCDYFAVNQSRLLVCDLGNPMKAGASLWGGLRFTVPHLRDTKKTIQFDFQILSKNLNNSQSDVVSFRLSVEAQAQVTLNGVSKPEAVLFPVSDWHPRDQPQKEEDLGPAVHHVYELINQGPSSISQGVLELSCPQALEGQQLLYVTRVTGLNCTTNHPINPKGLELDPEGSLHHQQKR
T4 sequence (P08648 895-1049 partner limits assumed): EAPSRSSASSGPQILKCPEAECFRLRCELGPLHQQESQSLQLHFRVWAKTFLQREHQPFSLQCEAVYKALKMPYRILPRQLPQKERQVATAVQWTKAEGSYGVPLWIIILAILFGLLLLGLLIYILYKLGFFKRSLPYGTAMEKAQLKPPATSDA

`CCc1c(C(=O)C(N)=O)c2c(OCC(=O)OC)cccc2n1Cc1ccccc1` [S-3013/LY333013]: the “therapeutic effect in rheumatoid arthritis and asthma” value in experiment [1] is given as “failed to demonstrate a significant therapeutic effect”.
In the case of `CCc1c(C(=O)C(N)=O)c2c(OCC(=O)[O-])cccc2n1Cc1ccccc1.[Na+]` [S-5920/LY315920Na], the “therapeutic effect in rheumatoid arthritis and asthma” value in [1] is on record as “failed to demonstrate a significant therapeutic effect”.
Regarding “QPNDGQSHVGSDNHYSASTTM [S2-β3 peptide, site 2 peptide, residues 267-287 of β3, C273 changed to S, GST fusion protein]”, in [2], the FKN-CD-induced integrin activation entry was “suppresses FKN-CD-induced integrin activation”. Also, the “binding to FKN-CD” value in the experiment with FKN-CD is “directly binds to FKN-CD”.
For “S2-β1 peptide: site 2 peptide from integrin β1 (β1 275-294, SEQ ID NO:1), made as GST fusion protein (LPNDGQCHLENNMYTMSHYY; also: made as GST fusion protein)”, the “binding of site 2 peptide to immobilized sPLA2-IIA” value in the experiment with sPLA2-IIA is reported as “bound better to sPLA2-IIA in a concentration-dependent manner than S2-β3 peptide”. Moreover, in the experiment on U937 cells, the “chemotaxis induced by sPLA2-IIA” value is reported as “suppressed chemotaxis induced by sPLA2-IIA”.
For “VHDSHYSGQGAMSDNTNSPQT [Compound S2-β3scr, scrambled site 2 peptide, GST fusion protein, control, reference compound]”, the “binding of site 2 peptide to immobilized sPLA2-IIA” value in the experiment with sPLA2-IIA is “did not bind to sPLA2-IIA”. For the same molecule, the FKN-CD-induced integrin activation result in experiment [2] is “does not”.
For the molecule “linear β1 peptide: linear peptide comprising SEQ ID NO:1, GST fusion (LPNDGQCHLENNMYTMSHYY; also: GST fusion)”, in experiment [3], the “binding to other ligands (e.g., SDF-1, IGF-1)” value is “did not bind to other ligands”.

B1: WT sPLA2-IIA: recombinant human secreted phospholipase A2 type IIA, wild type (protein)
chain: T1 sequence (P14555 21-144)
On to B1, for which, in [4], the “direct interaction of sPLA2-IIA with integrin ligands” value is recorded as “does not directly interact with the integrin ligands used in this study”. Moreover, the “sPLA2-IIA concentration required to detect integrin activation” value in experiment [5] is > 5 µg/mL. In addition, the “activation of αvβ3 on the cell surface (FITC-γC399tr binding)” value in [6] is “activated αvβ3”. For the same molecule, the “reactivity of β1 integrins to HUTS4 and HUTS21” value in experiment [7] was “did not change reactivity of β1 integrins to HUTS4 and HUTS21”. The “binding of FITC-labeled FN8-11 to α5β1 (α5β1 activation)” value (from here on “binding of FITC-labeled FN8-11 to α5β1”) in [8] was “markedly increased the binding of FITC-labeled FN8-11”. The “binding of H120 to α4β1 (α4β1 activation)” value in experiment [9] is given as “markedly increased the binding of H120 to α4β1”. The “sPLA2-IIA concentration of maximum H120 binding” value in experiment [9] (α4-CHO cells, sPLA2-IIA up to 500 μg/ml, binding reduced at higher concentrations) was 20 µg/mL. Further, in the experiment on Listera, the “concentration that kills Listera” value is on record as < 0.1 nM. The “binding of FITC-labeled ADAM15 disintegrin domain to αvβ3” value in experiment [10] is on record as “markedly enhanced”.

B2: R74E/R100E: integrin-binding defective mutant of sPLA2-IIA (protein)
chain: T1 sequence (P14555 21-144) with R74E, R100E
modifications: left off: small tags and cut ends
As for B2, the “binding of FITC-labeled FN8-11 to α5β1” value in experiment [8] was “did not”.

B3: G29S/D48K: M-type receptor-binding defective mutant of sPLA2-IIA (protein)
chain: T1 sequence (P14555 21-144) with G29S, D48K
modifications: left off: small tags and cut ends
B3: the “binding of FITC-labeled FN8-11 to α5β1” value in experiment [8] was “induced α5β1 activation”. For the same molecule, the “binding of H120 to α4β1 (α4β1 activation)” value in experiment [9] is on record as “induced α4β1 activation”.
